{"source": "patent US20170016892A1", "about": "“LOCALIZED SURFACE PLASMON RESONANCE SENSING OF HUMAN PERFORMANCE BIOMARKERS USING SHORT PEPTIDE RECOGNITION ELEMENTS ON OPTICALLY ACTIVE METAL NANOSTRUCTURES” (Government of the United States as Represented by the …, priority 2015, published 2017)", "key": {"[1]": {"molecular_target": "T1, cTnI (Homo sapiens, UniProt P19429)", "T1 sequence (P19429 whole entry)": "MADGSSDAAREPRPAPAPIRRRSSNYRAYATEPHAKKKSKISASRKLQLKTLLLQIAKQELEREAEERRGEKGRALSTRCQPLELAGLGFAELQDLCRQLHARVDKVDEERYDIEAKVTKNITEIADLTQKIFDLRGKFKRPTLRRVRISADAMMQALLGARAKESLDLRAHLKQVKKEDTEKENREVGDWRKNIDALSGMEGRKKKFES", "experiment": "LSPR shift of BPDs on exposure to troponin in buffer", "format": "binding", "description": "To probe the sensing capability of the BPDs, each BPD was exposed to troponin 1 (3.53 μg/mL in 0.1 M TBS, pH 8.0). […] The higher sensitivity of peptide-AuNR as compared to the sensitivity of the antibody-AuNR was believed to be due to differences in the thickness of the peptide and antibody adsorbate layer.\nTo probe the limit of detection in both the peptide- and antibody-AuNR BPDs, each BPD was exposed to varying concentrations of cTnI."}, "[2]": {"molecular_target": "human serum albumin (HSA) (Homo sapiens, UniProt P02768)", "experiment": "selectivity of BPDs with human serum albumin as interfering protein (LSPR shift)", "format": "binding", "conditions": "high concentrations of HSA", "text": "To compare selectivity of both the peptide- and antibody-AuNR BPDs towards cTnI, human serum albumin (“HSA”) was used as an interfering protein."}, "[3]": {"experiment": "thermal and shelf-life stability of BPDs by measured LSPR shift", "format": "physicochemical", "conditions": "incubated at 4° C. and at 60° C., each for 48 hrs", "description": "To compare stability of both the peptide- and antibody-AuNR BPDs, each BPD type was incubated at 4° C. and at 60° C., each for 48 hrs. […] This reduction is believed to be due to antibody denaturation and lose molecular recognition at elevated temperatures."}, "[4]": {"molecular_target": "T1, cTnI", "experiment": "detection of troponin in human plasma with peptide-based BPDs (LSPR shift)", "format": "binding", "description": "(§1) Peptide-based BPDs prepared in accordance with embodiments of the present invention were used in detection of troponin in complex physiological fluids, including, for example, human plasma and sweat. To reduce nonspecific binding, the BPDs were first exposed to 1% HAS to block non-specific sites. […] The limit of detection of cTnI in human plasma was 353 pg/mL, which was within physiological relevant concentration range of troponin in human plasma (0.010 ng/mL to 10 ng/mL). […] Moreover, detection of troponin in artificial eccrine sweat at physiologically-relevant concentration was also accomplished (see, FIG. 16B)."}, "[5]": {"molecular_target": "troponin (Homo sapiens, UniProt P19429)", "sequence (P19429 whole entry)": "as above", "experiment": "detection of troponin in artificial eccrine sweat with peptide-based BPDs (LSPR shift)", "format": "binding", "description": "as §1"}, "[6]": {"molecular_target": "T1, cTnI", "experiment": "binding affinity of phage-display-identified peptide to cTnI", "conditions": "peptide identified from a phage display peptide library", "text": "Human troponin I binding peptide (Seq. ID No. 1), identified from a phage display peptide library, with nanomolar (nM) binding affinity to cTnI. Conjugation of the peptide to AuNR was achieved by introducing a cysteine resident at the C-terminus of the peptide (Seq. ID No. 2), to facilitate binding via an Au—S linkage."}, "[7]": {"molecular_target": "T2, cardiac troponin I (human, UniProt P19429 2-210, limits assumed)", "T2 construct": "It was used in 0.1 M TBS pH 8.0, and spiked in human plasma and artificial eccrine sweat; also called cTnI; troponin 1", "T2 sequence (P19429 2-210 limits assumed)": "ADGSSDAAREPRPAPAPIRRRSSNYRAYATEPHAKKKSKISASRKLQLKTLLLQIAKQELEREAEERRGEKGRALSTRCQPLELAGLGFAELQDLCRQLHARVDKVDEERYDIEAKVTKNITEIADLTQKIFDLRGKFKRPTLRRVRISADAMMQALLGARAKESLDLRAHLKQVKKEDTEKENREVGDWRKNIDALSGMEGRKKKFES", "experiment": "LSPR shift after troponin binding, peptide-AuNR against anti-cTnI-AuNR as reference"}}, "note": "Where no end group is shown, it is not given here.", "data": [{"molecule": "peptide-AuNR: Troponin I binding peptide with C-terminal cysteine (Seq. ID No. 2) conjugated to gold nanorods via Au—S linkage, adsorbed on filter paper (FYSHSFHENWPSC; not fully specified (residue 13); also: conjugated to gold nanorods via Au–S bond of C-terminal Cys)", "values": [{"measurement": "LSPR red shift on exposure to troponin", "setting": "[1]; troponin 1 3.53 μg/mL in 0.1 M TBS, pH 8.0", "result": 12.3, "unit": "nm"}, {"measurement": "limit of detection of cTnI", "setting": "[1]; varying concentrations of cTnI", "result": "about 35.3 pg/mL"}, {"measurement": "LSPR shift upon exposure to HSA", "setting": "[2]", "result": "small LSPR shifts"}, {"measurement": "stability (measured LSPR shift after incubation)", "setting": "[3]", "result": "remarkable thermal and temporal stability"}, {"measurement": "LSPR shift with increased troponin concentration", "setting": "[4]", "result": "monotonic increase"}, {"measurement": "limit of detection of cTnI in human plasma", "setting": "[4]; BPDs first blocked with 1% HAS", "result": 353, "unit": "pg/mL"}, {"measurement": "LSPR shift with increased troponin concentration", "setting": "[5]", "result": "monotonic increase"}, {"measurement": "detection of troponin at physiologically-relevant concentration", "setting": "[5]", "result": "accomplished"}]}, {"molecule": "Human troponin I binding peptide: Human troponin I binding peptide (Seq. ID No. 1), identified from a phage display peptide library (FYSHSFHENWPS)", "values": [{"measurement": "binding affinity to cTnI", "setting": "[6]", "result": "nanomolar"}]}, {"molecule": "FYSHSFHENWPSC(AuNR) (ID No. 1 is the parent phage-display peptide; ID No. 2 is the same peptide with an added C-terminal Cys, and it is the form on the AuNRs in the assays; also called peptide-AuNR)", "values": [{"measurement": "LSPR shift relative to antibodies as recognition elements", "setting": "[7]", "result": "~100", "unit": "% higher"}]}]}
